Experimental findings from article PMC8567388 are described below.

Assay [1] deals with Peptide ligand: GluN2B (TAMRA-NNG-…). In words: fluorescence polarisation.
For assay [2], the target named is Peptide ligand: Stargazin (TAMRA-NNG-…). In words: fluorescence polarisation.

Turning to PSD-95 PDZ1 6xHis (domain or fragment), the Kd (usually the concentration at which binding is half-saturated) amounted to 12.4 µM in assay [1] and 27.3 µM in assay [2].
As to “PSD-95 PDZ1-2 6xHis (domain or fragment)”, the Kd in assay [1] stood at 1.9 µM.
